Assay [1] addresses T1, ATG12–ATG5-ATG16L1-GFP complex (E3-GFP) (human, UniProt O94817 1-140; Q9H1Y0 1-275; Q676U5-1 1-607, conjugated to a lysine residue in ATG5 (ATG12–ATG5 conjugate) | a lysine residue conjugated to ATG12).
T1 construct: ATG12, human; synthetic gene codon optimised for Sf9; conjugated to ATG5 by coexpressed ATG7 and ATG10; ATG5, human; ATG16L1 isoform β, human; Dimer with two copies of each subunit by static light scattering; no TEV cleavage is described for this complex; also called GFP-tagged E3; E3 complex; source: Sf9, coexpressed from one poly-cistronic construct with ATG7 and ATG10, purified (StrepTactin, …)
In words: microscopy-based bead protein-protein interaction assay; 500 nM GST-mCherry-WIPI3 or GST-mCherry-WIPI4 and 100 nM E3-GFP with glutathione-coated polystyrene beads; 25 mM Hepes pH 7.5, 150 mM NaCl, 1 mM TCEP; 30 min RT, washed three times, confocal imaging. Particulars: both partners purified.

Assay [2] addresses T1, ATG12–ATG5-ATG16L1-GFP complex (E3-GFP). As to the kind of experiment: microscopy-based bead protein-protein interaction assay; RFP-Trap beads coated with mCherry-WIPI2d, mCherry-Atg21 or mCherry as baits, 5 µM E3-GFP as prey; 25 mM Hepes pH 7.5, 150 mM NaCl, 1 mM DTT; at least 30 min at RT (22°C), confocal imaging. Particulars: both partners purified.

T1 sequence (O94817 whole entry, chain 1 of 3, canonical isoform): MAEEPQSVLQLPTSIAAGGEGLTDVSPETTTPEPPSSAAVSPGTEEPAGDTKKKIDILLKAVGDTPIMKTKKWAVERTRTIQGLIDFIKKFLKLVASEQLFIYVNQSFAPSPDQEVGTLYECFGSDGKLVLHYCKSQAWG
T1 sequence (Q9H1Y0 whole entry, chain 2 of 3, canonical isoform): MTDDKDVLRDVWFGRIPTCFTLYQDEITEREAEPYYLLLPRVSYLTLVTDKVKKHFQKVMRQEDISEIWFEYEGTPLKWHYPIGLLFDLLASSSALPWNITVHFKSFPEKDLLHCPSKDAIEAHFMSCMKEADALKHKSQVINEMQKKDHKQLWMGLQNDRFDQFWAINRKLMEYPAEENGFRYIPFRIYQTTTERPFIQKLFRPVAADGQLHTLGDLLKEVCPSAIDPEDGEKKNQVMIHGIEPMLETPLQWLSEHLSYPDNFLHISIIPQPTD
T1 sequence (Q676U5 whole entry, chain 3 of 3, canonical isoform): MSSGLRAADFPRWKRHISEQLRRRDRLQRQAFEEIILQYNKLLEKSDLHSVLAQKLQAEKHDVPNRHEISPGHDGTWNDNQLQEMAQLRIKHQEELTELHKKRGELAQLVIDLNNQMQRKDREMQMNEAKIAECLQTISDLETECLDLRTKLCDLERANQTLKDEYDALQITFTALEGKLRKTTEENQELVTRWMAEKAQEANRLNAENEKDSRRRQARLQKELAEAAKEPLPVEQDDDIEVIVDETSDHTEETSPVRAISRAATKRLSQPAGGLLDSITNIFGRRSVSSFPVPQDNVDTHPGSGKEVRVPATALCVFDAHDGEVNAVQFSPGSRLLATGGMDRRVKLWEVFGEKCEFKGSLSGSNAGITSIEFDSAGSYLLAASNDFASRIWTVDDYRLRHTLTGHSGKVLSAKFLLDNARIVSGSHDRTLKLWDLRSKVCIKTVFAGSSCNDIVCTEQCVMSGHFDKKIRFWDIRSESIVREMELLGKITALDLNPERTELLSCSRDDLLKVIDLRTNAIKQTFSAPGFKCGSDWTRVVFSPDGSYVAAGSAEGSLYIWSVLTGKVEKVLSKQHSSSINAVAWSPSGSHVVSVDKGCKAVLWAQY

B1: GST-mCherry-WIPI3 (natural protein)
chain: not shown
notes: WIPI3, human; synthetic gene; Construct GST-TEV-mCherry-WIPI3; held on glutathione beads in the assay; also called GST-mCherry–tagged WIPI3; source: HEK293 GnTi, transfected, purified; not shown: GST, N-terminal, kept; mCherry, N-terminal, kept
Take B1: the binding result in assay [1] is reported as “binds”.

B2: mCherry-Atg21 (natural protein, S. cerevisiae, UniProt Q02887 1-496, looked up)
chain: MKVLQFNQDATCCVVAASSHQISIFNCDPFGKCFEIDTKNSKKKTSNNNGSASNSESRNNEESILITNGSRDRTDAEEEEDNEDNALVTGNILKEGEFVIEMLFSTSLIAIADRGQGLNKGKKLKIVNTKRKCTICEIVFPHEIVDVVMNRKRMCVLLESDQIFIYDISCMKPLETIDLWEDHYKRSQANSFSNASNTGTLEGDSANLNRVATNLLANATQKSVNGSNPSVRTRRNSLRSKIRPRMVLSNDDRSILCFTAYSSPKKNKPNSEALYDVVIYDTLNVTPVNYLNSVHKGNVACLAVSHDGKLLATASDKGTIIRVFHTGVDSDYMSSRSLFKEFRRGTRLCNLYQLAFDKSMTMIGCVGDTDTIHLFKLDDASNSLPGDNSSNGHWNEEEYILASNSNPSMGTPKEIPLSKPRIANYFSKKIKSSIPNQNLSRNFAYITVNESNRSCLGFPDEFPNQVYIASDDGTFSIYSIPSKPGECVLTKNNKFT
notes: also called yeast Atg21; source: E. coli Rosetta pLysS, purified (Ni-NTA, TEV, Superdex 200); not shown: 6xHis, N-terminal, cleaved; mCherry, N-terminal, kept
For the molecule B2, the binding result in assay [2] is given as “binds”.

The record behind these values is article PMC7337497 (The Journal of Cell Biology, 2020).
